Assay results reported in patent US20230303699A1 (EXELIXIS, published 2023).

Assays:
[1] = molecular target: T1, PD-L1 on PD-L1 overexpressing CHO-K1 cells (Homo sapiens (Human), UniProt Q9NZQ7 19-290); assay: cell-based or functional assay
[2] = molecular target: T1, PD-L1 on PD-L1 overexpressing CHO-K1 …; assay: flow cytometry on PD-L1 CHO-K1 cells
Procedure: (§1) Cells were harvested at 70-90% confluence on the day of the assay. Cells were collected by centrifugation at 200×g for 5 minutes and media was removed. Cells were resuspended at 2×10⁶ cells per mL in cold PBS. […] 50 μL per well of the antibody dilution was plated in a 96 well V-bottom plate (Costar 3897). 50 μL per well of cell suspension was added. Plates were placed at 4° C. for 45-60 minutes.
(§2) Cells were collected by centrifugation at 400×g for 7 minutes and primary antibody was removed. […] Plates were placed at 4° C. for 30 minutes.
(§3) Cells were collected by centrifugation at 400×g for 7 minutes and secondary antibody was removed. Cells were resuspended in 50 μL per well of PBS and analyzed by flow cytometry. Binding curves were calculated using the mean fluorescence intensity (MFI) of the FITC fluorescence signal on the cells.

Mouse PD-L1 = molecular target: T2, Mouse PD-L1 (mouse, UniProt Q9EP73 19-238, biotinylated); assay: Octet BLI; biotinylated mouse PD-L1 on streptavidin sensor
T2 construct: Bought, biotinylated and immobilized on a streptavidin sensor; also called mPD-L1; Acro Cat. No. PD1-M5220
T2 sequence (Q9EP73 19-238 limits assumed): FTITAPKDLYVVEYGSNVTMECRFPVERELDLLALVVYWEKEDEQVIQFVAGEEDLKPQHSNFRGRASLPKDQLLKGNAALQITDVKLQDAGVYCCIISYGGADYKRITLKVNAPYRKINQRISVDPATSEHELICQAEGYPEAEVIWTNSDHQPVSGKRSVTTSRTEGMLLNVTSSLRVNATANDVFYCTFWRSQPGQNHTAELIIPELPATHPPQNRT

[3] = molecular target: T3, human PD-L1-His tag (extracellular domain) (human, UniProt Q9NZQ7 19-238); assay: Octet BLI, monovalent; IgG on Fc capture sensor, soluble PD-L1-His
T3 construct: Bought from Acro Biosystems; also called Acro Cat. No. PD1H5229; soluble antigen
T3 sequence (Q9NZQ7 19-238): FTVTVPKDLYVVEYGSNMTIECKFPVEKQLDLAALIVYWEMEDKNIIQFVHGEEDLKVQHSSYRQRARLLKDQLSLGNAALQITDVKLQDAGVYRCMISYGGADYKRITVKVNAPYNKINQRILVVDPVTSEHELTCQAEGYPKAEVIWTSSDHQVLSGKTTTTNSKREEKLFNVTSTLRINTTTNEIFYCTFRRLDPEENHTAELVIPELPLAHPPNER
Excerpt: The bivalent interaction of binders to the biotinylated human PD-L1 (see Example 1) immobilized on a streptavidin biosensor was monitored using an Octet (Pall ForteBio) instrument. To monitor monovalent interaction, full-length IgG molecule was immobilized to a Fc capture biosensor and its interaction with soluble antigen was monitored using an Octet instrument.
First, the antibodies were immobilized on an Fc capture sensor. In the next association step, the binding interaction of PD-L1 (Acro Cat. No. PD1H5229 (PD-L1-His tag)) to the immobilized IgG was measured. […] Octet kinetic analysis software was used to calculate the kinetic and equilibrium binding constants from the rate of association and dissociation curves. The analysis was performed using global curve fit where kinetic constants were derived simultaneously from all analyte concentration included in the experiment.

[4] = molecular target: T1, PD-L1 on PD-L1 overexpressing CHO-K1 …; assay: cell-based or functional assay; remark: listed apart in the source
[5] = molecular target: T1, PD-L1 on PD-L1 overexpressing CHO-K1 …; assay: flow cytometry on PD-L1 overexpressing CHO-K1 cells, AF488 goat anti human IgG Fab secondary, MFI
Procedure: as §1, §2, §3

T1 sequence (Q9NZQ7 19-290 limits assumed): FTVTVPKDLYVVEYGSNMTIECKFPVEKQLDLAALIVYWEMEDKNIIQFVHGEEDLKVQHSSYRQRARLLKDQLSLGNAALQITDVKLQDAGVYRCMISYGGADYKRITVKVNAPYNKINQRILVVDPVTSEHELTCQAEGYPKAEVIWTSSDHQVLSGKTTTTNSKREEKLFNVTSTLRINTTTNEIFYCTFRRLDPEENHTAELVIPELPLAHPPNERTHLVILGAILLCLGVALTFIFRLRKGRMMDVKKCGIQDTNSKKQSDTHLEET

B1: antibody designated P22 (antibody, human IgG1, kappa, V domains shown)
VH: EVQLVESGGGLVQPGGSLRLSCAASGFTFSSYYIHWVRQAPGKGLEWVAWITSHGYSTKYADSVKGRFTISADTSKNTAYLQMNSLRAEDTAVYYCARDSVIYGLDYWGQGTLVTAST
VL: DIQMTQSPSSLSASVGDRVTITCRASQSVSSAVAWYQQKPGKAPKLLIYSASSLYSGVPSRFSGSRSGTDFTLTISSLQPEDFATYYCQQYYTSPYTFGQGTKVEIKR
notes: Tested as full length IgG
PD-1/PD-L1 Interaction Blocking Reporter Assay IC50 [1]: 2.43 nM
EC50 [2]: 0.523 nM
binding result (Mouse PD-L1): no binding
KD [3]: < 20 nM
Kd [3]: 17.2 nM

B2: antibody designated P31.2 (antibody, human IgG1, kappa, V domains shown)
VH: EVQLVESGGGLVQPGGSLRLSCAASGFTFSSYYIHWVRQAPGKGLEWVATISSGGGFTYYADSVKGRFTISADTSKNTAYLQMNSLRAEDTAVYYCARGYTLTPVLDYWGQGTLVTAST
VL: DIQMTQSPSSLSASVGDRVTITCRASQSVSSAVAWYQQKPGKAPKLLIYSASSLYSGVPSRFSGSRSGTDFTLTISSLQPEDFATYYCQQFGAEPITFGQGTKVEIKR
notes: Tested as full length IgG
PD-1/PD-L1 Interaction Blocking Reporter Assay IC50 [1]: 1.23 nM
IC50 (read off the curve) [4]: ~2 nM
EC50 [2]: 0.552 nM
binding result (Mouse PD-L1): no binding
KD [3]: < 20 nM
Kd [3]: 13 nM

B3: antibody designated P24 (antibody, human IgG1, kappa, V domains shown)
VH: EVQLVESGGGLVQPGGSLRLSCAASGFTFDQYYIHWVRQAPGKGLEWVAEIYPAGSYTYYADSVKGRFTISADTSKNTAYLQMNSLRAEDTAVYYCARGPYSVRYALDYWGQGTLVTAST
VL: DIQMTQSPSSLSASVGDRVTITCRASQSVSSAVAWYQQKPGKAPKLLIYSASSLYSGVPSRFSGSRSGTDFTLTISSLQPEDFATYYCQQVSYSPYTFGQGTKVEIKR
notes: Tested as full length IgG
PD-1/PD-L1 Interaction Blocking Reporter Assay IC50 [1]: 4.98 nM
EC50 [2]: 1.62 nM
binding result (Mouse PD-L1): no binding
KD [3]: < 20 nM
Kd [3]: 17.5 nM
EC50 (read off the curve) [5]: ~2 nM
